Target: T1, human HER3 ECD (human, UniProt P21860 20-643)
T1 construct: also called hHER3-ECD; hu-HER3-ECD
Experiment: SPR (Biacore T100), antibody captured by anti-Fc gamma antibody, human HER3 ECD 0-1000 nM as analyte, 25°C, Langmuir 1:1 model

Kd [nM] | Binder
2 | Mab 205.10.1 (antibody, V domains shown, Humanized anti-HER3 antibody; Only variable domains are tied to it) VH: QVQLVQSGAEVKKPGASVKVSCKASGYTFRSSYISWVRQAPGQGLEWMGWIYAGTGSPSYNQKLQGRVTMTTDTSTSTAYMELRSLRSDDTAVYYCARHRDYYSNSLTYWGQGTLVTVSS VL: DIVMTQSPDSLAVSLGERATINCKSSQSLLNSGNQKNYLTWYQQKPGQPPKLLIYWASTRESGVPDRFSGSGSGTDFTLTISSLQAEDVAVYYCQSDYSYPYTFGQGTKLEIK
2 | Mab 205.10.3 (antibody, V domains shown, Humanized anti-HER3 antibody; Only variable domains are tied to it) VH: QVQLVQSGAEVKKPGASVKVSCKASGYTFRSSYISWVRQAPGQGLEWMGWIYAGTGSPSYNQKLQGRVTMTTDTSTSTAYMELRSLRSDDTAVYYCARHRDYYSNSLTYWGQGTLVTVSS VL: DIVMTQSPDSLAVSLGERATINCKSSQSLLNSGNQKNYLTWYQQKPGQPPKLLIYWASTRESGVPDRFSGSGSGTDFTLTISSLQAEDVSIYYCQSDYSYPYTFGQGTKLEIK
